# Earlier results as cited in article PMC9453958.
# Target: His64 (UniProt position 63, ILNNGHAFNVE)
# Test: kinetics
# Conditions: wild-type zinc enzyme during catalysis
substance,measurement,value
Carbonic anhydrase II (HCA II) (Homo sapiens),pKa,7.2 ± 0.1
